B1: pCaMKK2: CaMKK2_(93–517) D330A phosphorylated by PKA at all four sites (domain or fragment, human, UniProt Q96RR4 93-517, looked up)
chain: HLSGRKLSLQERSQGGLAAGGSLDMNGRCICPSLPYSPVSSPQSSPRLPRRPTVESHHVSITGMQDCVQLNQYTLKDEIGKGSYGVVKLAYNENDNTYYAMKVLSKKKLIRQAGFPRRPPPRGTRPAPGGCIQPRGPIEQVYQEIAILKKLDHPNVVKLVEVLDDPNEDHLYMVFELVNQGPVMEVPTLKPLSEDQARFYFQDLIKGIEYLHYQKIIHRDIKPSNLLVGEDGHIKIAAFGVSNEFKGSDALLSNTVGTPAFMAPESLSETRKIFSGKALDVWAMGVTLYCFVFGQCPFMDERIMCLHSKIKSQALEFPDQPDIAEDLKDLITRMLDKNPESRIVVPEIKLHPWVTRHGAEPLPSEDENCTLVEVTEEEVENSVKHIPSLATVILVKTMIRKRSFGNPFEGSRREERSLSAPGNLL
modifications: phosphoserine at 100, phosphothreonine at 145, phosphoserine at 495, phosphoserine at 511 (PKA; stoichiometric by LC-MS)
notes: Same construct as m3 after PKA phosphorylation; also called phosphorylated CaMKK2; source: E. coli BL21 (DE3), purified, phosphorylated by PKA in vitro, SEC
B3: Human 14‐3‐3γ (residues 1–235 lacking the C‐terminal 12‐residues‐long flexible tail) (domain or fragment, UniProt P61981 1-235, looked up)
chain: MVDREQLVQKARLAEQAERYDDMAAAMKNVTELNEPLSNEERNLLSVAYKNVVGARRSSWRVISSIEQKTSADGNEKKIEMVRAYREKIEKELEAVCQDVLSLLDNYLIKNCSETQYESKVFYLKMKGDYYRYLAEVATGEKRATVVESSEKAYSEAHEISKEHMQPTHPIRLGLALNYSVFYYEIQNAPEQACHLAKTAFDDAIAELDTLNEDSYKDSTLIMQLLRDNLTLWTS
notes: human 14-3-3γ, residues 1-235, lacking the C-terminal 12 residues; Homodimer; also called 14-3-3γ dimer; source: expressed and purified as described previously (Obsilova et al., 2004)
B5: pCaMKK1: CaMKK1_(67–480) D293A phosphorylated by PKA at all four sites (domain or fragment, human, UniProt Q8N5S9 67-480, looked up)
chain: SLSARKLSLQERPAGSYLEAQAGPYATGPASHISPRAWRRPTIESHHVAISDAEDCVQLNQYKLQSEIGKGAYGVVRLAYNESEDRHYAMKVLSKKKLLKQYGFPRRPPPRGSQAAQGGPAKQLLPLERVYQEIAILKKLDHVNVVKLIEVLDDPAEDNLYLVFDLLRKGPVMEVPCDKPFSEEQARLYLRDVILGLEYLHCQKIVHRDIKPSNLLLGDDGHVKIAAFGVSNQFEGNDAQLSSTAGTPAFMAPEAISDSGQSFSGKALDVWATGVTLYCFVYGKCPFIDDFILALHRKIKNEPVVFPEEPEISEELKDLILKMLDKNPETRIGVPDIKLHPWVTKNGEEPLPSEEEHCSVVEVTEEEVKNSVRLIPSWTTVILVKSMLRKRSFGNPFEPQARREERSMSAPGNL
modifications: phosphoserine at 74, phosphothreonine at 108, phosphoserine at 458, phosphoserine at 475 (PKA; stoichiometric by LC-MS)
notes: Same construct as m1 after PKA phosphorylation; also called phosphorylated CaMKK1; source: E. coli BL21 (DE3), purified, phosphorylated by PKA in vitro, SEC

Columns and labels:
[1] = target: T1, Dansyl‐labeled rat calmodulin (DANS‐CaM), Ca^2+-bound (rat, UniProt P0DP29 1-149, dansyl label (dansyl chloride; site not stated)); test: fluorescence polarisation; 2 μM DANS-CaM titrated by 30 μM CaMKK proteins and their binary dilution series, with and without 60 μM 14-3-3γ; 10 mM HEPES–NaOH pH 7.4, 150 mM NaCl, 1 mM CaCl2, 0.1% Tween 20, 0.1% BSA; one-site-binding model; conditions: both partners purified
T1 construct: rat calmodulin, labeled with dansyl chloride; Assays in 1 mM CaCl2; also called dansyl-Ca^2+/CaM; DANS-labeled CaM; source: prepared as described previously (Holakovska et al., 2011), labeled by dansyl chloride, SEC

[2] = target: B3; test: AUC; sedimentation velocity of mixtures of 0.06–6 μM pCaMKK1 or pCaMKK2 with 1.2 μM 14-3-3γ; direct modeling with the Lamm equation, Langmuir binding model, one pCaMKK on a 14-3-3γ homodimer; apparent KD; 50 mM Tris–HCl pH 7.5, 150 mM NaCl, 1 mM TCEP; 20°C; conditions: both partners purified
[3] = target: T2, Rat calmodulin, Ca^2+-bound (Ca^2+/CaM) (rat, UniProt P0DP29 1-149); test: AUC; sedimentation velocity of CaMKK1 or CaMKK2 with Ca^2+/CaM (1:1 molar ratio); 50 mM Tris–HCl pH 7.5, 150 mM NaCl, 1 mM TCEP, 1 mM CaCl2; 20°C; conditions: both partners purified
T2 construct: rat calmodulin; Unlabelled CaM, used with 1 mM CaCl2 in the ultracentrifuge; source: prepared as described previously (Holakovska et al., 2011)

[4] = target: the molecule itself; test: SEC-SAXS; in-line SEC-SAXS on Superdex 200 Increase 5/150 GL; complexes mixed at 1:2 molar ratio (pCaMKK:14-3-3γ); 50 mM Tris–HCl pH 7.5, 150 mM NaCl, 1 mM TCEP, 3% glycerol
[5] = target: B1; test: AUC; sedimentation velocity of mixtures of 0.06–6 μM pCaMKK1 or pCaMKK2 with 1.2 μM 14-3-3γ; direct modeling with the Lamm equation, Langmuir binding model, one pCaMKK on a 14-3-3γ homodimer; apparent KD; 50 mM Tris–HCl pH 7.5, 150 mM NaCl, 1 mM TCEP; 20°C; conditions: both partners purified
[6] = target: B5; test: as above; conditions: both partners purified
[7] = target: T3, dansyl-labeled calmodulin (DANS-CaM), Ca2+-bound (rat, UniProt P0DP29 1-149, dansyl label (dansyl chloride; site not stated)); test: fluorescence polarisation; 2 μM DANS-CaM titrated with CaMKK (30 μM and binary dilution series), 1 h incubation; 10 mM HEPES-NaOH pH 7.4, 150 mM NaCl, 1 mM CaCl2, 0.1% Tween 20, 0.1% BSA; one-site-binding model; conditions: both partners purified
T3 construct: rat calmodulin (CaM); The assay buffer held 1 mM CaCl2 (Ca2+/CaM); also called dansyl-Ca2+/CaM; source: prepared as described previously (Holakovska et al., 2011); labeled with dansyl chloride, SEC

[8] = target: T3, dansyl-labeled calmodulin (DANS-CaM), …; test: fluorescence polarisation; as a1 but with 60 μM 14-3-3γ present: 2 μM DANS-CaM titrated with CaMKK (30 μM and binary dilution series), 1 h incubation; 10 mM HEPES-NaOH pH 7.4, 150 mM NaCl, 1 mM CaCl2, 0.1% Tween 20, 0.1% BSA; one-site-binding model; conditions: both partners purified

For B1, the binding result [1] was “binds” and the “stoichiometry N” value [2] was 2 14-3-3γ protomers per pCaMKK.

B2: CaMKK2_(93–517) D330A, unphosphorylated (domain or fragment)
chain: HLSGRKLSLQERSQGGLAAGGSLDMNGRCICPSLPYSPVSSPQSSPRLPRRPTVESHHVSITGMQDCVQLNQYTLKDEIGKGSYGVVKLAYNENDNTYYAMKVLSKKKLIRQAGFPRRPPPRGTRPAPGGCIQPRGPIEQVYQEIAILKKLDHPNVVKLVEVLDDPNEDHLYMVFELVNQGPVMEVPTLKPLSEDQARFYFQDLIKGIEYLHYQKIIHRDIKPSNLLVGEDGHIKIAAFGVSNEFKGSDALLSNTVGTPAFMAPESLSETRKIFSGKALDVWAMGVTLYCFVFGQCPFMDERIMCLHSKIKSQALEFPDQPDIAEDLKDLITRMLDKNPESRIVVPEIKLHPWVTRHGAEPLPSEDENCTLVEVTEEEVENSVKHIPSLATVILVKTMIRKRSFGNPFEGSRREERSLSAPGNLL
notes: also called Ca^2+/CaM-dependent protein kinase kinase 2; Not-P CaMKK2; source: E. coli BL21 (DE3), purified
With B2 the “stoichiometry N” value [3] was 1.

In the case of B3, the “stoichiometry N” value [4] is reported as 2, the Kd [5] is reported as 60 ± 15 nM and the Kd [6] is reported as 21 ± 3 nM.

B4: CaMKK1(67-480) D293A, unphosphorylated (domain or fragment)
chain: SLSARKLSLQERPAGSYLEAQAGPYATGPASHISPRAWRRPTIESHHVAISDAEDCVQLNQYKLQSEIGKGAYGVVRLAYNESEDRHYAMKVLSKKKLLKQYGFPRRPPPRGSQAAQGGPAKQLLPLERVYQEIAILKKLDHVNVVKLIEVLDDPAEDNLYLVFDLLRKGPVMEVPCDKPFSEEQARLYLRDVILGLEYLHCQKIVHRDIKPSNLLLGDDGHVKIAAFGVSNQFEGNDAQLSSTAGTPAFMAPEAISDSGQSFSGKALDVWATGVTLYCFVYGKCPFIDDFILALHRKIKNEPVVFPEEPEISEELKDLILKMLDKNPETRIGVPDIKLHPWVTKNGEEPLPSEEEHCSVVEVTEEEVKNSVRLIPSWTTVILVKSMLRKRSFGNPFEPQARREERSMSAPGNL
notes: source: E. coli BL21 (DE3), purified
B4 was tested, and the Kd [7] was 600 ± 110 nM and the Kd [8] was 630 ± 70 nM.

B5 was tested, and the “stoichiometry N” value [2] was 2 14-3-3γ protomers per pCaMKK.

B6: CaMKK1_(67–480) D293A, unphosphorylated (domain or fragment)
chain: SLSARKLSLQERPAGSYLEAQAGPYATGPASHISPRAWRRPTIESHHVAISDAEDCVQLNQYKLQSEIGKGAYGVVRLAYNESEDRHYAMKVLSKKKLLKQYGFPRRPPPRGSQAAQGGPAKQLLPLERVYQEIAILKKLDHVNVVKLIEVLDDPAEDNLYLVFDLLRKGPVMEVPCDKPFSEEQARLYLRDVILGLEYLHCQKIVHRDIKPSNLLLGDDGHVKIAAFGVSNQFEGNDAQLSSTAGTPAFMAPEAISDSGQSFSGKALDVWATGVTLYCFVYGKCPFIDDFILALHRKIKNEPVVFPEEPEISEELKDLILKMLDKNPETRIGVPDIKLHPWVTKNGEEPLPSEEEHCSVVEVTEEEVKNSVRLIPSWTTVILVKSMLRKRSFGNPFEPQARREERSMSAPGNL
notes: Cloned into pRSFDuet-1; purification as in Psenakova et al., 2018; also called Ca^2+/CaM-dependent protein kinase kinase 1; Not-P CaMKK1; source: E. coli BL21 (DE3), purified
In the case of B6, the “stoichiometry N” value [3] is reported as 1.

B7: pCaMKK1: CaMKK1(67-480) D293A phosphorylated by PKA at four sites (domain or fragment)
chain: SLSARKLSLQERPAGSYLEAQAGPYATGPASHISPRAWRRPTIESHHVAISDAEDCVQLNQYKLQSEIGKGAYGVVRLAYNESEDRHYAMKVLSKKKLLKQYGFPRRPPPRGSQAAQGGPAKQLLPLERVYQEIAILKKLDHVNVVKLIEVLDDPAEDNLYLVFDLLRKGPVMEVPCDKPFSEEQARLYLRDVILGLEYLHCQKIVHRDIKPSNLLLGDDGHVKIAAFGVSNQFEGNDAQLSSTAGTPAFMAPEAISDSGQSFSGKALDVWATGVTLYCFVYGKCPFIDDFILALHRKIKNEPVVFPEEPEISEELKDLILKMLDKNPETRIGVPDIKLHPWVTKNGEEPLPSEEEHCSVVEVTEEEVKNSVRLIPSWTTVILVKSMLRKRSFGNPFEPQARREERSMSAPGNL
modifications: phosphoserine at 74, phosphothreonine at 108, phosphoserine at 458, phosphoserine at 475
notes: also called 4xPhosphorylated CaMKK1; source: E. coli BL21 (DE3), purified; phosphorylated with PKA, then SEC
Work on B7 yielded a Kd [7] of 2160 ± 300 nM.
